Assay results published in patent US9233155B2, “Method of treating solid cancers using anti-c-Met antibody and sorafenib combination therapy” (Samsung Electronics Co., Ltd., priority 2013, dated 2016).

B1: L3-1Y: anti-c-Met antibody: heavy chain variable region of huAbF46-H4-A1, human IgG2 hinge and IgG2 constant region, kappa light chain (antibody)
heavy: EVQLVESGGGLVQPGGSLRLSCAASGFTFTDYYMSWVRQAPGKGLEWLGFIRNKANGYTTEYSASVKGRFTISRDNSKNTLYLQMNSLRAEDTAVYYCARDNWFAYWGQGTLVTVSSASTKGPSVFPLAPCSRSTSESTAALGCLVKDYFPEPVTVSWNSGALTSGVHTFPAVLQSSGLYSLSSVVTVPSSNFGTQTYTCNVDHKPSNTKVDKTVERKCCVECPPCPAPPVAGPSVFLFPPKPKDTLMISRTPEVTCVVVDVSHEDPEVQFNWYVDGVEVHNAKTKPREEQFNSTFRVVSVLTVVHQDWLNGKEYKCKVSNKGLPAPIEKTISKTKGQPREPQVYTLPPSREEMTKNQVSLTCLVKGFYPSDIAVEWESNGQPENNYKTTPPMLDSDGSFFLYSKLTVDKSRWQQGNVFSCSVMHEALHNHYTQKSLSLSPGK
light: DIQMTQSPSSLSASVGDRVTITCKSSQSLLASGNQNNYLAWYQQKPGKAPKMLIIWASTRVSGVPSRFSGSGSGTDFTLTISSLQPEDFATYYCQQSYSRPYTFGQGTKVEIKRTVAAPSVFIFPPSDEQLKSGTASVVCLLNNFYPREAKVQWKVDNALQSGNSQESVTEQDSKDSTYSLSSTLTLSKADYEKHKVYACEVTHQGLSSPVTKSFNRGEC

Columns and labels:
[1] = tested on: MKN45 gastric cancer cells; assay: Tumor xenograft model of gastric cancer cell line MKN45; type: in vivo, BALB/c nude mice; details: sorafenib 3.3 mg/kg P.O. once a day, L3-1Y 1 mg/kg I.V. once a week, day 21
Description: (§1) To verify the in vivo effect of the co-administration on tumor growth, a tumor xenograft model using male 5-6 week-old BALB/c nude mice (Pharmalegacy, China) was prepared. The mice were adapted at least one week before inoculation of tumor cells.
(§2) Then, the mice were anesthetized with 1-2% isofurane, and MKN45 gastric cancer cells (JCRB, JCRB0254) were subcutaneously injected into the right flank of the mice in the amount of 5×10^6 cells per mouse. 7 days after, when the average size of the tumor reaches 50 mm^3 or more, the mice were grouped as follows: a group treated with sorafenib (3.3 mg/kg, P.O., once a day), a group treated with L3-1Y (1 mg/kg, I.V., once a week), a group co-treated with L3-1Y (1 mg/kg, I.V., once a week) and sorafenib (3.3 mg/kg, P.O., once a day), and a group (control) treated with vehicle (PBS 0.2 ml, I.V., once a week). Each group consisted of 10 mice.
(§3) The experiment was performed for 4 weeks in total, and tumor size and body weight of the mice were measured twice a week. The tumor volume (V) was calculated by the following formula: V (mm^3)={length of long axis (mm)×(length of short axis (mm))^2}/2.

[2] = tested on: EBC1 lung cancer cells; assay: Cell growth inhibition in EBC1 lung cancer cell line (CellTiter Glo); type: cell-based; details: L3-1Y 0-2 μg/mL alone, sorafenib 4 μM alone, or both; 72 hours
Description: (§4) In particular, RPMI1640 medium (GIBCO) containing 10% FBS added to a 96 well plate. EBC1 lung cancer cells (JCRB, JCRB0820) were seeded thereon in the amount of 5,000 cells/well, and incubated overnight at 37° C. After 24 hours (the next day), the incubated cells were treated with (a) L3-1Y (Reference Example 1) alone or (b) L3-1Y and sorafenib. For the single treatment of L3-1Y alone, the concentration of L3-1Y was 0 μg/mL, 0.016 μg/mL, 0.08 μg/mL, 0.4 μg/mL, or 2 μg/mL. For the co-treatment of L3-1Y and sorafenib, the concentration of sorafenib was fixed at 4 μM, and the concentration of L3-1Y was 0 μg/mL, 0.016 μg/mL, 0.08 μg/mL, 0.4 μg/mL, or 2 μg/m L.
(§5) At 72 hours after the single treatment or the co-treatment, 100 μL of CellTiter Glo solution (Promega, G7572) was added to each well, and left for 30 minutes at room temperature. The cell number was counted by emission signal, and the emission signal was recorded using Envision 2104 Multi-label Reader (Perkin Elmer).

[3] = tested on: MKN45 gastric cancer cells; assay: Cell growth inhibition in MKN45 gastric cancer cell line (CellTiter Glo); type: cell-based
Description: as §4, with “FBS was” for “FBS”, “MKN45 gastric” for “EBC1 lung”, “JCRB0254)” for “JCRB0820)”, “co-administration” for “co-treatment”, “μM, which is a concentration of IC30 in MKN45 cell line,” for “μM,”, “μg/mL.” for “μg/m L.”
as §5

[4] = tested on: HT29 colon cancer cells; assay: Tumor xenograft model of colon cancer cell line HT29; type: in vivo, BALB/c nude mice; details: for Tumor Inhibition Rate at 21st day (%; compared to vehicle-treated group (0%)): sorafenib 3.3 mg/kg P.O. once a day, L3-1Y 1 mg/kg I.V. once a week, day 21
Description: as §1
as §2, with “and HT29 colon” for “and MKN45 gastric”, “cells I(ATCC, HTB-38)” for “cells (JCRB, JCRB0254)”, “mice at” for “mice in”, “week).” for “week). Each group consisted of 10 mice.”
as §3

[5] = tested on: HCC1806 breast cancer cell line; assay: Cell growth inhibition in HCC1806 breast cancer cell line (CellTiter Glo); type: cell-based; details: L3-1Y 0-2 μg/mL alone or with sorafenib fixed at 3 μM, 72 hours
[6] = tested on: HT29 colon cancer cells; assay: Cell growth inhibition in HT29 colon cancer cell line (CellTiter Glo); type: cell-based; details: L3-1Y 0-2 μg/mL alone or with sorafenib fixed at 4 μM, 72 hours
Description: as §4, with “FBS was” for “FBS”, “HT29 colon” for “EBC1 lung”, “(ATCC, HTB-38)” for “(JCRB, JCRB0820)”, “μg/mL.” for “μg/m L.”
as §5

Row | Molecule | Tumor Inhibition Rate at 21st day (%; compared to vehicle-treated group (0%)) [1] | cell growth inhibiting effect [2] | inhibition at 4 µM ([3]; Homo sapiens, MKN-45, single treatment of sorafenib 4 μM (0 μg/mL of L3-1Y), 72 hours, read-out: cell growth inhibition rate) | concentration of IC30 in MKN45 cell line ([3]; MKN45 cell line) | Tumor Inhibition Rate at 21st day (%; compared to vehicle-treated group (0%)) [4] | cell death / cell growth inhibiting effect [5] | cell growth inhibiting effect [6] | cell growth inhibiting effect ([3]; L3-1Y 0-2 μg/mL alone or with sorafenib fixed at 4 μM, 72 hours) | cell growth inhibiting effect ([3]; L3-1Y 0.08 μg/mL, alone or with 4 μM sorafenib, 72 hours) | tumor inhibiting effect ([4]; same doses as Table 4)
1 | CNC(=O)c1cc(Oc2ccc(NC(=O)Nc3ccc(Cl)c(C(F)(F)F)c3)cc2)ccn1 [Sorafenib, 4-[4-[[4-chloro-3-(trifluoromethyl)phenyl]carbamoylamino]phenoxy]-N-methyl-pyridine-2-carboxamide] | 24.7% | no cell growth inhibiting effect | 30% | 4 µM | 22.1% |  |  |  |  | 
2 | B1 | 36.2% | observed |  |  | −0.9% | not observed | not observed | observed | only a little effect | no tumor inhibiting effect
